Source: PMC12646051
Values belong to the binder of their own block, whether it stands above or below them.

Tests used:
[1] = molecular target: mouse Slo1 (mSlo1) α-subunit (mouse) (UniProt Q08460)
human β2 (hβ2) (human) [2] = molecular target: T1, human β2 (hβ2) (human) (UniProt Q9Y691)
T1 sequence: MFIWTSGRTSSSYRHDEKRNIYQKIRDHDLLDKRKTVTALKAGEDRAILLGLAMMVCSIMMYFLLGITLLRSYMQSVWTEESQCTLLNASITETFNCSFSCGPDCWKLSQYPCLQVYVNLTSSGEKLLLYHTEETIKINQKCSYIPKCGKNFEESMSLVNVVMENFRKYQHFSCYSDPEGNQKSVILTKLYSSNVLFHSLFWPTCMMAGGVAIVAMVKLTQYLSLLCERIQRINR

human β2 (hβ2) (human) [3] = molecular target: T1, human β2 (hβ2) (human); remark: listed apart in the source
[4] = molecular target: β3-Gρ (full-length human BK β3a subunit with C-terminal eGFP-ρ1D4) (human); experiment: pull-down + SEC; plasmid weight ratio 1:0.2:1.8 (TR2)
[5] = molecular target: hSlo1EM-TS (modified human Slo1 BK α subunit with a C-terminal twin-strep tag) (human) (UniProt Q12791); experiment: pull-down + SEC; as a1 but plasmid weight ratio 1:0.2:1.8 (TR2)
[6] = molecular target: hSlo1EM-TS (modified human Slo1 BK α subunit with a C-terminal twin-strep tag) (human) (UniProt Q12791); experiment: pull-down + SEC; as a3 but plasmid weight ratio 1:0.2:1.8 (TR2)
[7] = molecular target: hSlo1EM-TS (modified human Slo1 BK α subunit with a C-terminal twin-strep tag) (human) (UniProt Q12791); experiment: pull-down + SEC; TR1 (1:1:1); three-step affinity purification: streptactin XT (Slo1), then anti-FLAG M2 resin (β2) and anti-ρ1D4 resin (β3) one after the other, in either order; eluates, input and flow-through read by dual-colour FSEC
[8] = molecular target: β3-Gρ (full-length human BK β3a subunit with C-terminal eGFP-ρ1D4) (human); experiment: as above
[9] = molecular target: hSlo1EM-TS (modified human Slo1 BK α subunit with a C-terminal twin-strep tag) (human) (UniProt Q12791); experiment: pull-down + SEC; HEK293F co-transfected with hSlo1EM-TS, β2-RF and β3-Gρ at plasmid weight ratio 1:1:1 (TR1); digitonin extract; Slo1 held on streptactin XT resin, eluted with 50 mM biotin; eluate read by dual-colour FSEC (Superose 6 Increase; eGFP and mCherry)

Sequence of hSlo1EM-TS (modified human Slo1 BK α subunit with a C-terminal twin-strep tag) (human) (Q12791 whole entry): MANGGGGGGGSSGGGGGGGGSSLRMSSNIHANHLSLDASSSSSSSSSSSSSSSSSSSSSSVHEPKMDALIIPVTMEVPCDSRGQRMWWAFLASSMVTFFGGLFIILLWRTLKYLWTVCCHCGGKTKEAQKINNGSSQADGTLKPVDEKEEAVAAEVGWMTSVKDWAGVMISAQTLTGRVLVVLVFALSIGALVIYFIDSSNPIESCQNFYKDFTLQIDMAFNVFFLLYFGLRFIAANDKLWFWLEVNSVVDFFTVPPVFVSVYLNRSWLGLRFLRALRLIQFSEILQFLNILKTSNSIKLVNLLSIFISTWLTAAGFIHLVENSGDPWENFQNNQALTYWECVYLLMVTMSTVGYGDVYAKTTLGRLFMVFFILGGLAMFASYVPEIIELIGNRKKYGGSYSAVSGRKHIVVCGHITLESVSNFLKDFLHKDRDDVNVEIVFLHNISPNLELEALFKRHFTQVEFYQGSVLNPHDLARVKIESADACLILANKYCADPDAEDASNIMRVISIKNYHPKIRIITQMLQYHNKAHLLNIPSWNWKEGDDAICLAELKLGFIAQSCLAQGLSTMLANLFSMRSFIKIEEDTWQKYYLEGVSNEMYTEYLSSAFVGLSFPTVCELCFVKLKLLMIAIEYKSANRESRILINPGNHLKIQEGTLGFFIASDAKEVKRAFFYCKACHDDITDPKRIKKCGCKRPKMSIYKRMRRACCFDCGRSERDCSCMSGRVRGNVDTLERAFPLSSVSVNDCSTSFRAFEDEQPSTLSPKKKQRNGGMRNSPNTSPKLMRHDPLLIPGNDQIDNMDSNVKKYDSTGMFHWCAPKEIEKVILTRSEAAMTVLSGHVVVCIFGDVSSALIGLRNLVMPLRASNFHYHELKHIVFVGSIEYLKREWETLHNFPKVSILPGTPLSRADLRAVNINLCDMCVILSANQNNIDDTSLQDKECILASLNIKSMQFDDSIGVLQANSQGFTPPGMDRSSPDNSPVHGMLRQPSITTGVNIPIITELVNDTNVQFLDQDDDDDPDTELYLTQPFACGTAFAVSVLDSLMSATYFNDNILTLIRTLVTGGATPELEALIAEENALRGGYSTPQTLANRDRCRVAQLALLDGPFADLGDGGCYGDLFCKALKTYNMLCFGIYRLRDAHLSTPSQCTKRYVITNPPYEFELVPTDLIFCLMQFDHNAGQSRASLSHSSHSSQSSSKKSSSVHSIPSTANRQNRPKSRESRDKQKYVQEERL
Sequence of mouse Slo1 (mSlo1) α-subunit (mouse) (Q08460 whole entry): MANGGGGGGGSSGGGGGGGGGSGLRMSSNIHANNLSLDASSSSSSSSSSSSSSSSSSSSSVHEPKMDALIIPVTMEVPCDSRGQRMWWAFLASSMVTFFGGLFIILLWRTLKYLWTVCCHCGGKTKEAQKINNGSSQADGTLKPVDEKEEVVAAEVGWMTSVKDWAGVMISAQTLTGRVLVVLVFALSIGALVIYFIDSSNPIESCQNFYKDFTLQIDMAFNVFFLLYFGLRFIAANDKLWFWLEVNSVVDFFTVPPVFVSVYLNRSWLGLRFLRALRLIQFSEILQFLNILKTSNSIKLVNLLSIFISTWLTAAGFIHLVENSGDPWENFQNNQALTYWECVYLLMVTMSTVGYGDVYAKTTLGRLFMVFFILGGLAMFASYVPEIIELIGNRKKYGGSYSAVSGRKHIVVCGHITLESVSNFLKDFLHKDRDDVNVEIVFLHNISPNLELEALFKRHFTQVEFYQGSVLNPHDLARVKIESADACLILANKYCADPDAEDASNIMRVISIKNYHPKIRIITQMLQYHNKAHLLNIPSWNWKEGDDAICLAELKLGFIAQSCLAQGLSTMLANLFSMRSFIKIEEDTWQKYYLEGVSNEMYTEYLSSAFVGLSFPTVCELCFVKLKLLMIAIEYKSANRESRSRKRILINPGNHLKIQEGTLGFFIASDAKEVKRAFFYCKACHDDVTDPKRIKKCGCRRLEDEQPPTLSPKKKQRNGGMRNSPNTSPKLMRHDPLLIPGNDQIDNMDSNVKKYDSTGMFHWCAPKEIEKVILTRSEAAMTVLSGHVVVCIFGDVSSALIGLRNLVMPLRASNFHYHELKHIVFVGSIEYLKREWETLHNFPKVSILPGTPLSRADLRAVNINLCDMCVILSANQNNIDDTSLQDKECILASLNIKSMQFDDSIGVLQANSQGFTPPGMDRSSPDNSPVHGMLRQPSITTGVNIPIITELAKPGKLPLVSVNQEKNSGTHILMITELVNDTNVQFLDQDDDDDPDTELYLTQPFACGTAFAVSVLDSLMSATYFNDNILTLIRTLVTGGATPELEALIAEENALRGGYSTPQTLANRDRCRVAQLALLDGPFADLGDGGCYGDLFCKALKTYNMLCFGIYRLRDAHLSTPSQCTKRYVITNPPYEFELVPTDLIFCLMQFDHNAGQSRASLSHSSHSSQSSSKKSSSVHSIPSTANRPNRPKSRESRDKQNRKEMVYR

time course of trypsin removal of inactivation of α+β3a currents in excised oocyte patches, described by I(t)=(1-exp(-t/τ))^4; β subunits per channel (β subunits per channel) [1]: 4
global fit of the trypsin digestion time courses of BK currents (mSlo1 with β2:β3a injection ratios 1:4 to 1:24, β2 alone, β3a alone): random mixing model against segregated model (fold lower sum of squares) (human β2 (hβ2) (human) [2]): 2.5
single-channel recordings from oocytes with BK α and 1:8 β2:β3a: of 16 patches with β3a-type tail openings, those that also show β2-like recovery from inactivation without reopening (of 16 patches) (human β2 (hβ2) (human) [3]): 14
B1: mouse β3a (mβ3a) (natural protein)
chain: MQPFSIPVQITLQGGRRRQGRTALPASGKINGDPLKVHPKLPSSAGEDRAMLLGVAMMASSVLMFFLLGTTVLKPFMLRSPREESNCTTVHTHIVDDGLDFSFTCEGSCQDHGRSPCLQVFVNLSHSGQKVLLHYDDEAIRTNPKCFYTPKCHGDRDDLLNSVLDIKEFFDHNNGTFPCFYSPDGPLGVVLRKSGHKVVFHCLFWPLLTLLGGALIVGLVRLTQHLSFQCEQYSTVVRA

time course of trypsin removal of inactivation of α+β2 currents in excised oocyte patches, described by I(t)=(1-exp(-t/τ))^4; β subunits per channel (β subunits per channel) [1]: 4
B2: human β2 (hβ2) (natural protein)
chain: T1 sequence

percent of Slo1–β3 complexes that are ternary (hold β2 too) [4]: 37%
molar ratio of β2-RF to β3-Gρ affiliated with Slo1 [5]: 1.08 mol/mol
stoichiometry N (β2 per 4 Slo1) [6]: 1.9
stoichiometry N (β2 per 4 Slo1) [7]: 2.8
percent of Slo1–β3 complexes that are ternary (hold β2 too) [8]: 49%
molar ratio of β2-RF to β3-Gρ affiliated with Slo1 [9]: 7.32 mol/mol
B3: β2-RF (full-length human BK β2 subunit with C-terminal mCherry-FLAG) (natural protein)
chain: T1 sequence
